Assay results taken from US20140141450A1.

Experiments:
[1] = biological target: Peptide sequence VII: NH2-…-TAG Plus; assay: competitive ECL immunoassay; anti-FLAG M1 beads with peptide sequence VII-TAG Plus, uncleaved peptide sequence VI present, Xa 0.00 ng/mL
NH2-…-TAG (SEQ ID NO:5) [2] = assay: ECL capture assay; uncleaved NH2-…-TAG at 2.5 µg/mL, FXa 0.00 ng/mL
NH2-…-TAG (SEQ ID NO:5) [3] = assay: ECL capture assay; uncleaved NH2-…-TAG at 5.0 µg/mL, FXa 0.00 ng/mL
NH2-…-TAG (SEQ ID NO:5) [4] = assay: ECL capture assay; uncleaved NH2-…-TAG at 1.25 µg/mL, FXa 0.00 ng/mL
[5] = biological target: Peptide sequence V: Bz-…(mPeg2)(KLCBiot)-amide; assay: ECL bead immunoassay; uncleaved peptide sequence V on streptavidin beads, FXa 0.00 ng/mL, 20 minute incubation
[6] = biological target: Peptide sequence V: Bz-…(mPeg2)(KLCBiot)-amide; assay: ECL bead immunoassay; uncleaved peptide sequence V on streptavidin beads, FXa 0.00 ng/mL, 10 minute incubation
[7] = tested on: T1, Peptide sequence V: Bz-IEGRDYKDDDDKGSHHHHHH(mPeg2)(KLCBiot)-amide
T1 sequence: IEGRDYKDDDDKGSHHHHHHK

[8] = tested on: T2, NH2-IEGRDYKDDDDKGS-TAG (SEQ ID NO:5)
T2 sequence: IEGRDYKDDDDKGS

[9] = tested on: T3, Peptide probe sequence II: Biotin-(mPeg2)IEGRGS (KBv TAG Plus) amide
T3 sequence: IEGRGSK

[10] = tested on: T4, Peptide probe sequence I: Biotin-IEGRGS (KBv TAG Plus) amide
T4 sequence: IEGRGSK

[11] = tested on: T5, Peptide sequence VI: NH2-IEGRDYKDDDDKGS-amide
T5 sequence: IEGRDYKDDDDKGS

Substance: Biotin-conjugated ANTI-FLAG® M1 antibody
- Mean Signal (ECL, without FXa) [1]: 91800 ECL signal
- Mean Signal (ECL, background without FXa) (NH2-…-TAG (SEQ ID NO:5) [2]): 856 ECL signal
- Mean Signal (ECL, background without FXa) (NH2-…-TAG (SEQ ID NO:5) [3]): 1770 ECL signal
- Mean Signal (ECL, background without FXa) (NH2-…-TAG (SEQ ID NO:5) [4]): 593 ECL signal

Substance: BV TAG Plus-conjugated ANTI-FLAG® M1 antibody
- Mean Signal (ECL, background without FXa) [5]: 319 ECL signal
- Mean Signal (ECL, background without FXa) [6]: 345 ECL signal

Substance: factor Xa (FXa)
- Mean Signal (ECL, TAG Plus anti-FLAG M1 detector), FXa 0.686 ng/mL, 10 minute incubation [7]: 856 ECL signal
- Mean Signal (ECL, TAG Plus anti-FLAG M1 detector), FXa 0.686 ng/mL, 20 minute incubation [7]: 1050 ECL signal
- Mean Signal (ECL, TAG Plus anti-FLAG M1 detector), FXa 2.06 ng/mL, 10 minute incubation [7]: 1430 ECL signal
- Mean Signal (ECL, TAG Plus anti-FLAG M1 detector), FXa 2.06 ng/mL, 20 minute incubation [7]: 2110 ECL signal
- Mean Signal (ECL, TAG Plus anti-FLAG M1 detector), FXa 6.17 ng/mL, 10 minute incubation [7]: 3100 ECL signal
- Mean Signal (ECL, TAG Plus anti-FLAG M1 detector), FXa 6.17 ng/mL, 20 minute incubation [7]: 6040 ECL signal
- Mean Signal (ECL, TAG Plus anti-FLAG M1 detector), FXa 18.5 ng/mL, 10 minute incubation [7]: 8790 ECL signal
- Mean Signal (ECL, TAG Plus anti-FLAG M1 detector), FXa 18.5 ng/mL, 20 minute incubation [7]: 20700 ECL signal
- Mean Signal (ECL, TAG Plus anti-FLAG M1 detector), FXa 55.6 ng/mL, 10 minute incubation [7]: 33700 ECL signal
- Mean Signal (ECL, TAG Plus anti-FLAG M1 detector), FXa 55.6 ng/mL, 20 minute incubation [7]: 74000 ECL signal
- Mean Signal (ECL, TAG Plus anti-FLAG M1 detector), FXa 167 ng/mL, 10 minute incubation [7]: 113000 ECL signal
- Mean Signal (ECL, TAG Plus anti-FLAG M1 detector), FXa 167 ng/mL, 20 minute incubation [7]: 225000 ECL signal
- Mean Signal (ECL, TAG Plus anti-FLAG M1 detector), FXa 500 ng/mL, 10 minute incubation [7]: 298000 ECL signal
- Mean Signal (ECL, TAG Plus anti-FLAG M1 detector), FXa 500 ng/mL, 20 minute incubation [7]: 498000 ECL signal
- Signal/Background, FXa 0.686 ng/mL, 10 minute incubation [7]: 2.5
- Signal/Background, FXa 0.686 ng/mL, 20 minute incubation [7]: 3.3
- Signal/Background, FXa 2.06 ng/mL, 10 minute incubation [7]: 4.1
- Signal/Background, FXa 2.06 ng/mL, 20 minute incubation [7]: 6.6
- Signal/Background, FXa 6.17 ng/mL, 10 minute incubation [7]: 9
- Signal/Background, FXa 6.17 ng/mL, 20 minute incubation [7]: 19
- Signal/Background, FXa 18.5 ng/mL, 10 minute incubation [7]: 25
- Signal/Background, FXa 18.5 ng/mL, 20 minute incubation [7]: 65
- Signal/Background, FXa 55.6 ng/mL, 10 minute incubation [7]: 98
- Signal/Background, FXa 55.6 ng/mL, 20 minute incubation [7]: 232
- Signal/Background, FXa 167 ng/mL, 10 minute incubation [7]: 328
- Signal/Background, FXa 167 ng/mL, 20 minute incubation [7]: 706
- Signal/Background, FXa 500 ng/mL, 10 minute incubation [7]: 864
- Signal/Background, FXa 500 ng/mL, 20 minute incubation [7]: 1560
- Mean Signal (ECL, capture on anti-FLAG M1 beads), FXa 1.37 ng/mL, peptide 1.25 µg/mL [8]: 1140 ECL signal
- Mean Signal (ECL, capture on anti-FLAG M1 beads), FXa 1.37 ng/mL, peptide 2.5 µg/mL [8]: 1390 ECL signal
- Mean Signal (ECL, capture on anti-FLAG M1 beads), FXa 1.37 ng/mL, peptide 5.0 µg/mL [8]: 3720 ECL signal
- Mean Signal (ECL, capture on anti-FLAG M1 beads), FXa 4.12 ng/mL, peptide 1.25 µg/mL [8]: 2170 ECL signal
- Mean Signal (ECL, capture on anti-FLAG M1 beads), FXa 4.12 ng/mL, peptide 2.5 µg/mL [8]: 3830 ECL signal
- Mean Signal (ECL, capture on anti-FLAG M1 beads), FXa 4.12 ng/mL, peptide 5.0 µg/mL [8]: 6360 ECL signal
- Mean Signal (ECL, capture on anti-FLAG M1 beads), FXa 12.3 ng/mL, peptide 1.25 µg/mL [8]: 4440 ECL signal
- Mean Signal (ECL, capture on anti-FLAG M1 beads), FXa 12.3 ng/mL, peptide 2.5 µg/mL [8]: 7700 ECL signal
- Mean Signal (ECL, capture on anti-FLAG M1 beads), FXa 12.3 ng/mL, peptide 5.0 µg/mL [8]: 14900 ECL signal
- Mean Signal (ECL, capture on anti-FLAG M1 beads), FXa 37.0 ng/mL, peptide 1.25 µg/mL [8]: 10700 ECL signal
- Mean Signal (ECL, capture on anti-FLAG M1 beads), FXa 37.0 ng/mL, peptide 2.5 µg/mL [8]: 20100 ECL signal
- Mean Signal (ECL, capture on anti-FLAG M1 beads), FXa 37.0 ng/mL, peptide 5.0 µg/mL [8]: 32300 ECL signal
- Mean Signal (ECL, capture on anti-FLAG M1 beads), FXa 111 ng/mL, peptide 1.25 µg/mL [8]: 20500 ECL signal
- Mean Signal (ECL, capture on anti-FLAG M1 beads), FXa 111 ng/mL, peptide 2.5 µg/mL [8]: 41800 ECL signal
- Mean Signal (ECL, capture on anti-FLAG M1 beads), FXa 111 ng/mL, peptide 5.0 µg/mL [8]: 62100 ECL signal
- Mean Signal (ECL, capture on anti-FLAG M1 beads), FXa 333 ng/mL, peptide 1.25 µg/mL [8]: 52800 ECL signal
- Mean Signal (ECL, capture on anti-FLAG M1 beads), FXa 333 ng/mL, peptide 2.5 µg/mL [8]: 62700 ECL signal
- Mean Signal (ECL, capture on anti-FLAG M1 beads), FXa 333 ng/mL, peptide 5.0 µg/mL [8]: 78700 ECL signal
- Mean Signal (ECL, capture on anti-FLAG M1 beads), FXa 1000 ng/mL, peptide 1.25 µg/mL [8]: 69000 ECL signal
- Mean Signal (ECL, capture on anti-FLAG M1 beads), FXa 1000 ng/mL, peptide 2.5 µg/mL [8]: 78200 ECL signal
- Mean Signal (ECL, capture on anti-FLAG M1 beads), FXa 1000 ng/mL, peptide 5.0 µg/mL [8]: 86900 ECL signal
- Signal/Background, FXa 1.37 ng/mL, peptide 1.25 µg/mL [8]: 1.9
- Signal/Background, FXa 1.37 ng/mL, peptide 2.5 µg/mL [8]: 1.6
- Signal/Background, FXa 1.37 ng/mL, peptide 5.0 µg/mL [8]: 2.1
- Signal/Background, FXa 4.12 ng/mL, peptide 1.25 µg/mL [8]: 3.7
- Signal/Background, FXa 4.12 ng/mL, peptide 2.5 µg/mL [8]: 4.5
- Signal/Background, FXa 4.12 ng/mL, peptide 5.0 µg/mL [8]: 3.6
- Signal/Background, FXa 12.3 ng/mL, peptide 1.25 µg/mL [8]: 7.5
- Signal/Background, FXa 12.3 ng/mL, peptide 2.5 µg/mL [8]: 9
- Signal/Background, FXa 12.3 ng/mL, peptide 5.0 µg/mL [8]: 8.4
- Signal/Background, FXa 37.0 ng/mL, peptide 1.25 µg/mL [8]: 18
- Signal/Background, FXa 37.0 ng/mL, peptide 2.5 µg/mL [8]: 24
- Signal/Background, FXa 37.0 ng/mL, peptide 5.0 µg/mL [8]: 18
- Signal/Background, FXa 111 ng/mL, peptide 1.25 µg/mL [8]: 35
- Signal/Background, FXa 111 ng/mL, peptide 2.5 µg/mL [8]: 49
- Signal/Background, FXa 111 ng/mL, peptide 5.0 µg/mL [8]: 35
- Signal/Background, FXa 333 ng/mL, peptide 1.25 µg/mL [8]: 89
- Signal/Background, FXa 333 ng/mL, peptide 2.5 µg/mL [8]: 73
- Signal/Background, FXa 333 ng/mL, peptide 5.0 µg/mL [8]: 45
- Signal/Background, FXa 1000 ng/mL, peptide 1.25 µg/mL [8]: 116
- Signal/Background, FXa 1000 ng/mL, peptide 2.5 µg/mL [8]: 91
- Signal/Background, FXa 1000 ng/mL, peptide 5.0 µg/mL [8]: 49
- % Signal Decrease, FXa 78.1 ng/mL [9]: 0%
- % Signal Decrease, FXa 156 ng/mL [9]: -4%
- % Signal Decrease, FXa 313 ng/mL [9]: -11%
- % Signal Decrease, FXa 625 ng/mL [9]: -10%
- % Signal Decrease, FXa 1250 ng/mL [9]: -24%
- % Signal Decrease, FXa 2500 ng/mL [9]: -39%
- % Signal Decrease, FXa 5000 ng/mL [9]: -66%
- Mean Signal (ECL), FXa 78.1 ng/mL [9]: 340000 ECL signal
- Mean Signal (ECL), FXa 156 ng/mL [9]: 326000 ECL signal
- Mean Signal (ECL), FXa 313 ng/mL [9]: 303000 ECL signal
- Mean Signal (ECL), FXa 625 ng/mL [9]: 306000 ECL signal
- Mean Signal (ECL), FXa 1250 ng/mL [9]: 257000 ECL signal
- Mean Signal (ECL), FXa 2500 ng/mL [9]: 209000 ECL signal
- Mean Signal (ECL), FXa 5000 ng/mL [9]: 117000 ECL signal
- % Signal Decrease, FXa 78.1 ng/mL [10]: -3%
- % Signal Decrease, FXa 156 ng/mL [10]: -3%
- % Signal Decrease, FXa 313 ng/mL [10]: -9%
- % Signal Decrease, FXa 625 ng/mL [10]: -15%
- % Signal Decrease, FXa 1250 ng/mL [10]: -31%
- % Signal Decrease, FXa 2500 ng/mL [10]: -53%
- % Signal Decrease, FXa 5000 ng/mL [10]: -76%
- Mean Signal (ECL), FXa 78.1 ng/mL [10]: 414000 ECL signal
- Mean Signal (ECL), FXa 156 ng/mL [10]: 413000 ECL signal
- Mean Signal (ECL), FXa 313 ng/mL [10]: 388000 ECL signal
- Mean Signal (ECL), FXa 625 ng/mL [10]: 363000 ECL signal
- Mean Signal (ECL), FXa 1250 ng/mL [10]: 296000 ECL signal
- Mean Signal (ECL), FXa 2500 ng/mL [10]: 202000 ECL signal
- Mean Signal (ECL), FXa 5000 ng/mL [10]: 104000 ECL signal
- % Signal Decrease, Xa 0.686 ng/mL [11]: -8.5%
- % Signal Decrease, Xa 2.06 ng/mL [11]: -22%
- % Signal Decrease, Xa 6.17 ng/mL [11]: -42%
- % Signal Decrease, Xa 18.5 ng/mL [11]: -60%
- % Signal Decrease, Xa 55.6 ng/mL [11]: -75%
- % Signal Decrease, Xa 167 ng/mL [11]: -84%
- % Signal Decrease, Xa 500 ng/mL [11]: -89%
- Mean Signal (ECL, competitive format), Xa 0.686 ng/mL [11]: 84000 ECL signal
- Mean Signal (ECL, competitive format), Xa 2.06 ng/mL [11]: 71900 ECL signal
- Mean Signal (ECL, competitive format), Xa 6.17 ng/mL [11]: 53000 ECL signal
- Mean Signal (ECL, competitive format), Xa 18.5 ng/mL [11]: 36400 ECL signal
- Mean Signal (ECL, competitive format), Xa 55.6 ng/mL [11]: 22500 ECL signal
- Mean Signal (ECL, competitive format), Xa 167 ng/mL [11]: 14300 ECL signal
- Mean Signal (ECL, competitive format), Xa 500 ng/mL [11]: 9830 ECL signal
